This note sets out measurements from paper PMC6770890.

The target of the data set is T1, H-NS (Salmonella enterica serovar Typhimurium ATCC 14028s) (UniProt A0A0F6B244).
T1 sequence: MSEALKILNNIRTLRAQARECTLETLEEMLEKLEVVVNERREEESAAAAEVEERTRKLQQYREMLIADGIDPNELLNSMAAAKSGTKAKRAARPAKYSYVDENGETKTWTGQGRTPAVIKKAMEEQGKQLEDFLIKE
Put plainly: EMSA. Particulars: 20 mM Tris-HCl, 1 mM EDTA, 100 ug/mL BSA, 1 mM DTT, 10% glycerol, 80 mM NaCl, 25 C, 30 min; 50 ng DNA in 20 uL, protein 0-9.76 uM; pH 7.5 or 5.5 in Fig. 5B …. In general terms: A gel shift assay detects complexes by their altered migration in electrophoresis.

In the case of “CAAAGACGCCGAGAATGTGAAAAAATTCGTTCAGGCTTATCAGTCTGATGAAGTGTACGAAGCCGCAAATAAAGTTTTTAATGGCGGCGCGGTGAAAGGCTGGTAAGTTTTAGGCTGATTCCACAATCTGTAATATTATTCAGGACGGGCTATTGCCCGTCTTGTCATTTATGCAAGCTCCTGATTCAATATCTGGC (double strand) [yaeB promoter (PyaeB)]”, the binding entry is listed as “binds”.

Turning to “GCCGTGCTGTTCACTCATCCGCGCCACCAGCCGGTCAAGGTGCAGACGGGCAATCACGCCACGCGACGTTTCGTCCAGCGGCAGGTAAGGGATCACCGTCACGCGGCCCAGAAATGCCGCCGGGAAATGCTTGCGCAATTCCGGCATTAGCGCCTCTTTAAGCCCCGTAGCATCGGGCATTAAGGCCGGATCTTCACACATCTGGCTGATGAGGTCGGAACCCACGTTGGTGGTGAGTAATAGCGTGGTG (double strand) [STM0272 fragment]”, the binding entry is “no binding”.
